Legend:
human TRF2^TRFH (human) = human TRF2^TRFH (human) (UniProt Q15554); assay: flow cytometry protein interaction assay
crystal structure = biological target: the molecule itself; assay: crystal structure
[1] = biological target: T1, MBP-tagged TERB1^TRFB – TERB2^1-107 (human, UniProt Q8NA31;Q8NHR7); assay: pull-down
T1 sequence 1: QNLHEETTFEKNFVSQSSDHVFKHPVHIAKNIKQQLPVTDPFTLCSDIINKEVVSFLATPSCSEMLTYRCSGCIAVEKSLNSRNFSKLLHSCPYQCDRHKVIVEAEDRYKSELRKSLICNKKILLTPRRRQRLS
T1 sequence 2: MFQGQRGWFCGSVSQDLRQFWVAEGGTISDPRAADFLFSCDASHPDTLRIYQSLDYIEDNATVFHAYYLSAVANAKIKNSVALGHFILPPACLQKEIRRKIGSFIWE

GST-TRF1^TRFH = biological target: T2, GST-TRF1^TRFH (human, UniProt P54274 62-265); assay: pull-down
T2 sequence: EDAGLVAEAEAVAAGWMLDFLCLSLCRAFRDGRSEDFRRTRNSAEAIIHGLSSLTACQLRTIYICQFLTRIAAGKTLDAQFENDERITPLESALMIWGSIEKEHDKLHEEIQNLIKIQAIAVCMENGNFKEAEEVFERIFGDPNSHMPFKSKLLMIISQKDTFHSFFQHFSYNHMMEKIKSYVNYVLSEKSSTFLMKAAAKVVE

Sequence of human TRF2^TRFH (human) (Q15554 whole entry): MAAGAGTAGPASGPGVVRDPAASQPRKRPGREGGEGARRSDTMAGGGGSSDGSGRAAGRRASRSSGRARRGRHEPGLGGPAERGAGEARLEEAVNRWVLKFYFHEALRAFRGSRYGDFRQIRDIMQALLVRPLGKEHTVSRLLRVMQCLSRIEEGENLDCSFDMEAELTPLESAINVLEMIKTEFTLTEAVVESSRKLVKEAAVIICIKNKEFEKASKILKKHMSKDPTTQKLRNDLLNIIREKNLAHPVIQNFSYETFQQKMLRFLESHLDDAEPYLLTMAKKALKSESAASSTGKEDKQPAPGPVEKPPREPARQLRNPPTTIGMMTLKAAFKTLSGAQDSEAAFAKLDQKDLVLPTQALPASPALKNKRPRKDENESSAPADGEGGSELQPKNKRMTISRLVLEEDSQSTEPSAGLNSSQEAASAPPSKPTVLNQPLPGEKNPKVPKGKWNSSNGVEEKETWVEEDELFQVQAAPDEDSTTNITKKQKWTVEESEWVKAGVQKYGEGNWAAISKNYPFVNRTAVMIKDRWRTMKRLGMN

## His-Smt3-TERB1^TBM I645E (from UniProt Q8NA31 643-656) (peptide)
Human TRF2^TRFH (human)
  relative IC50 (normalized to TERB1^TBM WT): 2.25

## His-Smt3-TERB1^TBM I645F (from UniProt Q8NA31 643-656) (peptide)
Human TRF2^TRFH (human)
  relative IC50 (normalized to TERB1^TBM WT): 2.6

## His-Smt3-TERB1^TBM WT (from UniProt Q8NA31 643-656) (peptide)
Human TRF2^TRFH (human)
  relative IC50 (normalized to TERB1^TBM WT): 1

## His-Smt3-TERB1^TBM R652E (from UniProt Q8NA31 643-656) (peptide)
Human TRF2^TRFH (human)
  relative IC50 (normalized to TERB1^TBM WT): 1.05

## His-Smt3-TERB1^TBM T648A (from UniProt Q8NA31 643-656) (peptide)
Human TRF2^TRFH (human)
  relative IC50 (normalized to TERB1^TBM WT): 0.4

B1: human TRF1^TRFH (TRF homology domain of TRF1, aa 62-265) (domain or fragment)
chain: EDAGLVAEAEAVAAGWMLDFLCLSLCRAFRDGRSEDFRRTRNSAEAIIHGLSSLTACQLRTIYICQFLTRIAAGKTLDAQFENDERITPLESALMIWGSIEKEHDKLHEEIQNLIKIQAIAVCMENGNFKEAEEVFERIFGDPNSHMPFKSKLLMIISQKDTFHSFFQHFSYNHMMEKIKSYVNYVLSEKSSTFLMKAAAKVVE
modifications: biotin (biotin maleimide) on cysteines in the flow-cytometry bead assays; unlabelled in the pull-downs and the crystal
Crystal structure
  stoichiometry N: 2
[1]
  binding result: binds

## KKILLTPRRRQRLS [His-Smt3-TERB1^TBM WT]
GST-TRF1^TRFH
  binding result: binds

## KKFLLTPRRRQRLS [His-Smt3-TERB1^TBM I645F]
GST-TRF1^TRFH
  binding result: binds

B2: TERB1^TRFB - TERB2^1-107 complex WT (complex)
chain 1: QNLHEETTFEKNFVSQSSDHVFKHPVHIAKNIKQQLPVTDPFTLCSDIINKEVVSFLATPSCSEMLTYRCSGCIAVEKSLNSRNFSKLLHSCPYQCDRHKVIVEAEDRYKSELRKSLICNKKILLTPRRRQRLS
chain 2: MFQGQRGWFCGSVSQDLRQFWVAEGGTISDPRAADFLFSCDASHPDTLRIYQSLDYIEDNATVFHAYYLSAVANAKIKNSVALGHFILPPACLQKEIRRKIGSFIWE
Human TRF2^TRFH (human)
  relative IC50 (normalized to TERB1^TRFB - TERB2^1-107 WT): 1

B3: TERB1^TRFB - TERB2^1-107 I645E (complex)
chain 1: QNLHEETTFEKNFVSQSSDHVFKHPVHIAKNIKQQLPVTDPFTLCSDIINKEVVSFLATPSCSEMLTYRCSGCIAVEKSLNSRNFSKLLHSCPYQCDRHKVIVEAEDRYKSELRKSLICNKKELLTPRRRQRLS
chain 2: MFQGQRGWFCGSVSQDLRQFWVAEGGTISDPRAADFLFSCDASHPDTLRIYQSLDYIEDNATVFHAYYLSAVANAKIKNSVALGHFILPPACLQKEIRRKIGSFIWE
Human TRF2^TRFH (human)
  relative IC50 (normalized to TERB1^TRFB - TERB2^1-107 WT): 0.4

B4: TERB1^TRFB - TERB2^1-107 I645F (complex)
chain 1: QNLHEETTFEKNFVSQSSDHVFKHPVHIAKNIKQQLPVTDPFTLCSDIINKEVVSFLATPSCSEMLTYRCSGCIAVEKSLNSRNFSKLLHSCPYQCDRHKVIVEAEDRYKSELRKSLICNKKFLLTPRRRQRLS
chain 2: MFQGQRGWFCGSVSQDLRQFWVAEGGTISDPRAADFLFSCDASHPDTLRIYQSLDYIEDNATVFHAYYLSAVANAKIKNSVALGHFILPPACLQKEIRRKIGSFIWE
Human TRF2^TRFH (human)
  relative IC50 (normalized to TERB1^TRFB - TERB2^1-107 WT): 0.8

Source: publication PMC5755706 (Nature structural & molecular biology, 2017)
